Data on six molecules can be found in patent publication US12674174B2, “Protoporphyrinogen oxidase (PPO) resistance plant” (PLANTARC BIO LTD., priority 2022, dated 2026).

The test deals with Arabidopsis plants. As to conditions: for High concentration herbicide tolerance: Table 1; for rank among fungal isolated-PPO genes for growth in the presence of Strike, Star, Goal and Aurora: Strike 2.5, Star 1.25, Goal 1.15, Aurora 1.0 kg/hectare; for herbicides against which tolerance was shown: FIG. 3C, Strike, Star, Goal, Aurora tested.

“Also recorded” adds a separate entry of the source.

B1: SEQ ID NO: 94: PPO from Penicillium sp. Protein. (protein, listed as Penicillium sp.)
chain: MRLLTASKGLRSPQKPLISAIRCQHRSYNAAVIGGGITGLTAAWQLIQDRECSSVTIYEKSRRLGGWLQSETIPVEGGEVVFEYGPRTLRSAMPASLPLLYLVSNLGLFDELITTSKRSPAALNRYIYYPDHLVRLPTPDPDLSLMENARNIFRTITTEPLFEGFITGLLSEPNKPARPQEEWAIDESLAEFITRRFNRKIADNLVSAVMHGIYADNIDEMSAQAIMGPLRNLEDGGILFGLLIKSIMGKKTRSMDDFLAVDAVYKTPETMQRLDEINRVVKTASTFTFKRGTQQLVEGLTRALRASEKVRLVMDADILALDPPANRGHKLKIYTGIRGEESFDHVISAISAPAMARILDPQGQVKIDCDPEDEYRALWNSKKARHPKPNIGTVSGLHFFRHATTVMVVNLYYKTPNLLPVDGFGYLIPRSIPYEQNPECGLGVIFASASSSGESPVAPYPKVSQDSAPGTKITIMFGGHYWDGWKKQDYPDHKTAVRMAKDMLERHLGITEPPALVRTRLQENAIPKYKPPHIHQIYALSRWAKEEYHNRLVLVGNSFSGVGVGDCVRQGIMAATHGVGRHKLTATPRLESKDWCPWKEYNYQHWDLKGGVPTAPVRLFESDI
With B1, the “High concentration herbicide tolerance” value (yes/no) was “yes”. Further, the Herbicide tolerance entry (Table 2, yes/no, FIG. 6C legend: Star 1.25 kg/hectare) is reported as “yes”.

B2: SEQ ID NO: 114: PPO from Trichoderma sp. fused to cTP. Chimeric Protein; cloned from SEQ ID NO: 96 (protein, listed as Trichoderma sp.)
chain: MELSLLRPTTQSLLPSFSKPNLRLNVYKPLRLRCSVAGGMSLKRADGAAMAFLRLSSAVCGRRRIPAGGLPADANVAVLGGGLTGLTTAYYLAKWLPPTAKITLLEASDRLGGWIKTDRVPVKVGGVEGVVSFERGPRSLSSLNKSTWRFDDLVLWDLALDLGLRVVSPPDKPRYIYYPDHLVPLPPHTSLAAFASEPLVLESLWAGFGYVLRRLFSRKAGVPVQDLSIADWIQHITGSRAVAENLASAMVHGIYGGDIYTLSARSVLDRFYWVHYLPALGPDVRHMALSEQVFMEAMGQDPLIRKLAQQPRGALLNFGEAGMETLPIALADALNGQANVEVKLGAKVTGLEYESETEMMKITTTGQDDSPAEKYHKVISTLPSQHLARITDTLPSLASSHAVSIMTVNIWYPQTNLKPPGFGYLIPLSVPAEQNPERALGVFFDSDVGVRGPDEPAGTKLFVLMGGHYYDKKQPGASVRVPSEEEAIEQAKRVLERHLGIPQSTPCFAMARLASECIPQYVCGHQDTMAAADEDLRDSFDGRLAVAGGSYTKIGAMGALRNGYDIANTVVREDWLTTGLEQLEFPTQFCGVPTERIPVRRFSRR
Consider B2, for which the “rank among fungal isolated-PPO genes for growth in the presence of Strike, Star, Goal and Aurora” value is reported as “top 3”.

B3: SEQ ID NO: 103: Nicotiana tabacum protoporphyrinogen oxidase, mitochondrial, NP_001312887.1 (protein, listed as Nicotiana tabacum)
chain: MAPSAGEDKHSSAKRVAVIGAGVSGLAAAYKLKIHGLNVTVFEAEGKAGGKLRSVSQDGLIWDEGANTMTESEGDVTFLIDSLGLREKQQFPLSQNKRYIARNGTPVLLPSNPIDLIKSNFLSTGSKLQMLLEPILWKNKKLSQVSDSHESVSGFFQRHFGKEVVDYLIDPFVAGTCGGDPDSLSMHHSFPELWNLEKRFGSVILGAIRSKLSPKNEKKQGPPKTSANKKRQRGSFSFLGGMQTLTDAICKDLREDELRLNSRVLELSCSCTEDSAIDSWSIISASPHKRQSEEESFDAVIMTAPLCDVKSMKIAKRGNPFLLNFIPEVDYVPLSVVITTFKRENVKYPLEGFGVLVPSKEQQHGLKTLGTLFSSMMFPDRAPNNVYLYTTFVGGSRNRELAKASRTELKEIVTSDLKQLLGAEGEPTYVNHLYWSKAFPLYGHNYDSVLDAIDKMEKNLPGLFYAGNHRGGLSVGKALSSGCNAADLVISYLESVSTDSKRHC
In the case of B3, the “High concentration herbicide tolerance” value (yes/no) is listed as “no”.

B4: SEQ ID NO: 112: PPO from Penicillium sp. fused to cTP. Chimeric Protein; cloned from SEQ ID NO: 94 (protein, listed as Penicillium sp.)
chain: MELSLLRPTTQSLLPSFSKPNLRLNVYKPLRLRCSVAGGMRLLTASKGLRSPQKPLISAIRCQHRSYNAAVIGGGITGLTAAWQLIQDRECSSVTIYEKSRRLGGWLQSETIPVEGGEVVFEYGPRTLRSAMPASLPLLYLVSNLGLFDELITTSKRSPAALNRYIYYPDHLVRLPTPDPDLSLMENARNIFRTITTEPLFEGFITGLLSEPNKPARPQEEWAIDESLAEFITRRFNRKIADNLVSAVMHGIYADNIDEMSAQAIMGPLRNLEDGGILFGLLIKSIMGKKTRSMDDFLAVDAVYKTPETMQRLDEINRVVKTASTFTFKRGTQQLVEGLTRALRASEKVRLVMDADILALDPPANRGHKLKIYTGIRGEESFDHVISAISAPAMARILDPQGQVKIDCDPEDEYRALWNSKKARHPKPNIGTVSGLHFFRHATTVMVVNLYYKTPNLLPVDGFGYLIPRSIPYEQNPECGLGVIFASASSSGESPVAPYPKVSQDSAPGTKITIMFGGHYWDGWKKQDYPDHKTAVRMAKDMLERHLGITEPPALVRTRLQENAIPKYKPPHIHQIYALSRWAKEEYHNRLVLVGNSFSGVGVGDCVRQGIMAATHGVGRHKLTATPRLESKDWCPWKEYNYQHWDLKGGVPTAPVRLFESDI
Consider B4, for which the “herbicides against which tolerance was shown” value was “tolerances against Goal and Star herbicides only”.

B5: SEQ ID NO: 116: PPO from Hesseltinella sp. fused to cTP. Chimeric Protein; cloned from SEQ ID NO: 98 (protein, listed as Hesseltinella sp.)
chain: MELSLLRPTTQSLLPSFSKPNLRLNVYKPLRLRCSVAGGMPRSIVVLGGGISGLSAAYYLSRLVPQAHIRLIESNKRAGGFIKTQQVNDHLIFEAGPRTLRPHGTSGTVLLDMIKDLDLSPLLVNIPKSHPSAQHRYIEYHGQINQLPSGLADMLLHSPPIMDSVITAGMREPFLARASTTKDESLYNFMERRFNEHTALNLMGAMAHGIYAGDAKQLSVHSTFPILAACEQEYGSVVLGMLSGKLSVESPRERQLADACRAKDPEWFKQMQQSSVLGFLPGLGALPSRLTQFLSSQPNVSMQLGETVSRLDGQSSHQIEITTSQGQIYHADHIVSTLPSHALARISMPTTTSLPHLTHNPSADVALVNLAYEKCKVKPGLDGFGFLTPHADTMPPSQFPGLLGMIFDSNSLGVQDQDSNMVRFTAMIGGADWNLAFGSLHDNDAISSKALTMATAALSKYLEIHESPAHYHCRILRQCIPQYLVGHRQRMNELHAALQHSFGHTMSVTGASYLGVSVPDCIKHSRMLIEDLVDTGALGSKQAVITGLEKVTLPMYYKL
Regarding B5, the “herbicides against which tolerance was shown” value was “tolerances against Goal and Star herbicides only”.

B6: SEQ ID NO: 115: PPO from Rhodotorula sp. fused to cTP. Chimeric Protein; cloned from SEQ ID NO: 97 (protein, listed as Rhodotorula sp.)
chain: MELSLLRPTTQSLLPSFSKPNLRLNVYKPLRLRCSVAGGMQSYSGNALARQSVPIKPIRRRTPRLNLIRSLPSPRFFVTSPSSSQRHDHPYHTLAILGGGLSGLSTAHYFLRTLSPSLRDQTRIVVLEKEERVGGWCRAVRIQNGRRLGENEKPEGTEDLLVFETGPRSVRPVGLLGWLTIEMAHELGLTPSIVTVPKSAPSARNRFIYTGHRSSTSISPILKAALPTIPSALLEPFRPRSPLHDDPSGLADESVDSFIARRFGRRLADELASAGIHGIYAGDTRRLSVRAVLPALWELEKEWGSVVIGALFGSFARRRGWKKNSPWRMRQQAETEEMERVKERIRAKGGEALVEDMEKASVWGVKGGLQVVTETLREKLEAEGVEFWMGEKGKVEHVEKVDGGWQIRTSSGALDASQLVTTIPQLLPSSLAPPALPATTVSVVNLAFEKPAPGSPPLHPAGFGYLIPRTVPSSLNPHRALGVIFDSDVMPDVDSSSSLGLTKLSLLLGGSYWLDRHPPPQPSHDDLVNAALETLRLHFPDRPIPKPVHAFTHTHVNCIPQVPPGFMPSFRAFGDRLREAGNVAVVGGGFAAVGVNGCVKAAWEVGSAMAQAVNAQAGGKEGEGEEKVREAVARTVKTGTEMWEL
For B6, the “rank among fungal isolated-PPO genes for growth in the presence of Strike, Star, Goal and Aurora” value is “top 3; also recorded: top 2”.
